Measured values from PMC3716775, “Interaction between Trehalose and MTHase from Sulfolobus solfataricus Studied by Theoretical Computation and Site-Directed Mutagenesis” (PLoS ONE, 2013).
Positions count from the first letter of the chain named. Numbers in names are those of the source.

B1: MTHase (maltooligosyltrehalose trehalohydrolase) from S. solfataricus ATCC 35092 (Saccharolobus solfataricus P2) (protein)
chain: MTFGYKLDEDGVTFNLWAPYQRKVKLKILNRGIYEMERDDKGYFTITLDNVRVGDRYKYILDDNSEVPDPASRYQPEGVHGYSEIISPDFEWDDENSVKVKREDLVIYELHIGTFTSEGTFEGVIKKLNYLKELGVTAIEIMPIAQFPGKKDWGYDGVYLYAVQNSYGGPSGFRKLVNEAHKLGLAVILDVVYNHVGPEGNYMVKLGPYFSEKYKTPWGLTFNFDDAGSDEVRKFILENVEYWINEFHVDGFRLDAVHAIIDNSPKHILEDIADVVHKYDKIVIAESDLNDPRVVNPKEKCGYNIDAQWVDDFHHAIHAFLTGERQGYYSDFGSIGDIVKSYKDVFIYDGKYSNFRRKTHGKSVGDLDGCKFVVYIQNHDQVGNRGGGERLIKLVDKESYKIAAALYILSPYIPMIFMGEEYGEENPFYYFSDFSDPKLIQGVREGRRRENGQETDPQSDCTFNDSKLSWKINDDILSFYKSLIKIRKEYGLACNRKLSVENGNYWLTVKGNGCLAVYVFSKSVIEMKYSGTLVLSSNSSFPSQITESKYELDKGFALYKL
notes: expressed from pET-15b-ΔH-treZ in E. coli BL21-CodonPlus (DE3)-RIL; heat treatment 80 °C, Q-Sepharose; docking model was the KM1 enzyme (PDB 1EH9), not the assayed protein
B2: MTHase (maltooligosyltrehalose trehalohydrolase) from S. solfataricus ATCC 35092 (Saccharolobus solfataricus P2; Y155F) (protein)
chain: B1 chain with Y155F
notes: as for B1
B3: MTHase (maltooligosyltrehalose trehalohydrolase) from S. solfataricus ATCC 35092 (Saccharolobus solfataricus P2; R447A) (protein)
chain: B1 chain with R447A
notes: as for B1
B4: MTHase (maltooligosyltrehalose trehalohydrolase) from S. solfataricus ATCC 35092 (Saccharolobus solfataricus P2; E450A) (protein)
chain: B1 chain with E450A
notes: as for B1
B5: MTHase (maltooligosyltrehalose trehalohydrolase) from S. solfataricus ATCC 35092 (Saccharolobus solfataricus P2; Y155A) (protein)
chain: B1 chain with Y155A
notes: as for B1
B6: MTHase (maltooligosyltrehalose trehalohydrolase) from S. solfataricus ATCC 35092 (Saccharolobus solfataricus P2; H195A) (protein)
chain: B1 chain with H195A
notes: as for B1
B7: MTHase (maltooligosyltrehalose trehalohydrolase) from S. solfataricus ATCC 35092 (Saccharolobus solfataricus P2; D156A) (protein)
chain: B1 chain with D156A
notes: as for B1

Substrate: OC[C@H]1O[C@H](O[C@H]2O[C@H](CO)[C@@H](O[C@H]3O[C@H](CO)[C@@H](O[C@H]4O[C@H](CO)[C@@H](O[C@H]5O[C@H](CO)[C@@H](O)[C@H](O)[C@H]5O)[C@H](O)[C@H]4O)[C@H](O)[C@H]3O)[C@H](O)[C@H]2O)[C@H](O)[C@@H](O)[C@@H]1O
Assay: initial rates of G3T hydrolysis, Michaelis-Menten fit
Format: biochemical, Saccharolobus solfataricus
Settings: 50 mM citrate-phosphate pH 5, 60 °C
Source text: initial rates of […] hydrolysis, Michaelis-Menten fit on […] (maltooligosyltrehalose trehalohydrolase) from S. solfataricus ATCC 35092

Protein	Km	kcat	kcat/Km
B1	5.22 ± 0.59 mM	947 ± 40 s⁻¹	182000 ± 14000 M⁻¹ s⁻¹
B2	5.02 ± 0.34 mM	27.8 ± 0.7 s⁻¹	5540 ± 250 M⁻¹ s⁻¹
B3	10.7 ± 1.3 mM	303 ± 16 s⁻¹	28200 ± 2000 M⁻¹ s⁻¹
B4	7.48 ± 0.70 mM	1070 ± 50 s⁻¹	144000 ± 8000 M⁻¹ s⁻¹
B5	39.2 ± 2.8 mM	44.8 ± 1.7 s⁻¹	1140 ± 40 M⁻¹ s⁻¹
B6	4.18 ± 0.31 mM	2.15 ± 0.05 s⁻¹	510 ± 30 M⁻¹ s⁻¹
B7	12.9 ± 2.3 mM	608 ± 62 s⁻¹	47300 ± 3700 M⁻¹ s⁻¹
